# Results: the DeepSol protein solubility set
# Assay: soluble on expression in E. coli; label from the status in PepcDB or PDB records
row,Sequence,soluble on expression in E. coli
1,VANITFSSPVMAKDVTVYAVAGDRGTILAVAKSHSIPIPFDCQDGECGSCLVQVEHFNPKAKAAVALTEKEKEVLRQLGKITKEEIVDAEVNDIPPRYRLACQCFVRNEDILVKFEGDKTKPQRLAVTPAAAHYKGGMEINTPQEFFSYAAKVEEDAALHYDSLAKAMADAGNAPVAKLFAQLAEFSRLHLAEVKSRAGSIDLSKSVPPDYAWPDHATPERAAVWASDTTLTRLGALKAALQGERRGYEFYRAVEATTKSSEVAAAAKEFVNEEAEHVRILEAWITQEEWSLKHAAKAAENA,not soluble
2,VDKRESYTKEDLLASGRGELFGAKGPQLPAPNMLMMDRVVKMTETGGNFDKGYVEAELDINPDLWFFGCHFIGDPVMPGCLGLDAMWQLVGFYLGWLGGEGKGRALGVGEVKFTGQVLPTAKKVTYRIHFKRIVNRRLIMGLADGEVLVDGRLIYTASDLKVGLFQDTSAF,soluble
3,VEPVDPCFRANCEYQCQPLNQTSYLCVCAEGFAPIPHEPHRCQLFCNQTACPADCDPNTQASCECPEGYILDDGFICTDIDECENGGFCSGVCHNLPGTFECICGPDSALAGQIGTDCDSG,soluble
4,VFILPDCNPVLKFISSARERLLIIAPYIDFRWYKDDGLLEAIKGAKESGAEVKVVLNAKYAKEEAVSTLRKEGVKVELIDNLHGKAIVSDKRLLITSANMNMHGLKLNREIGVIINNPEMADAVIKEFEGGEVTPLD,not soluble
5,VIEPARGLGDGNIERKIRGLLDSWMTWNHSFQGSCMFLDAWNDAADKNCPLQAALRKAIDTWLSYLEIQIAKGKENQEFISDLDTRQATFDLYGQYLSAHVFYSIKGEEESLRLFWQGIDNLLARWRG,not soluble
6,VIIPDINLLLYAVITGFPQHRRAHAWWQDTVNGHTRIGLTYPALFGFLRIATSARVLAAPLPTADAIAYVREWLSQPNVDLLTAGPRHLDIALGLLDKLGTASHLTTDVQLAAYGIEYDAEIHSSDTDFARFADLKWTDPLRE,not soluble
7,VIRRSSLSSTESEIRMDATTVSTTDDIWSPSWDDPFEPTTDHDDEFAELTDALRAVQEAVTRSRPTPEAAGRAARTLRDLAARLAAFEVGEDEQISGRRWDLAGRGQTLTPALHLDEVTENRARGHVVVGRFHSGRYAMNGGVTPLIFDEILARLANSCGRPWARTAYLHVNYRAPAPLDVELRVEAEFAGQDGRKRFMRGAMYHGDVLVADVEGLWIELKPEQTQNVSLAVGWGAEENS,not soluble
8,VKIDNKTFQVNGRVLLDDLTEEFGIEFDDSEDIDTIGGWLQSRNTNLQKDDYVDTTYDRWVVSEIDNHQIIWVILNYEFNEARPTIGQSDEDEKSE,not soluble
9,VKKIKDIGEVAGGSTPSTKIKEYWGGDIPWITPKDLANYEYIYISRGERNITEKAVKECSLRIFPKGTILLTSRAPIGYVAIAKNPLTTNQGFRNIIPKDGVVSEYLYYLFKTKTMSEYLKDISGGSTFPELKGSTLKEVEIPYPSPEEQQKIATVLSYFDD,not soluble
10,VLIARRPEDKHQGGLWEFPGGKVEDGEPVRAALARELEEELGIRVERARPLIQVRHDYADKHVLLDVWEVDGFSGEAHGAEGQPLAWVEPRELADYEFPAANAPIVQAARLPAHYLITPDGLEPGELISGVRKAVEAGIRLIQLRAPNMFSPEYRDLAIDIQGLCAGKAQLMLKGPLEWLGDFPAAGWHLTSAQLRKYASAGRPFPEGRLLAASCHDAEELALAASMGVEFVTLSPVQPTESHPGEPALGWDKAAELIAGFNQPVYLLGGLGPQQAEQAWEHGAQGVAGIRAFWPGGL,not soluble
11,VQLLESGPGVVKPSETLSLTCTVSGASVNNYYWTWVRQPPGKGLEWIGNVYDSGDTNYNPSLSSRLSLSMDTSKNQFSLRLSSVTAADTATYYCARYHRHFIRGPLSFDYWGRGTLVTVSSASTKGPSVFPLAPSSKSTSGGTSALGCLVKDYFPEPVTVSWNSGALTSGVHTFPAVLQSSGLYSLSSVVTVPSSSLGTQTYICNVNHKPSNTKVDKKVEPKSCDKTS,soluble
12,VSAPTKPHSPTFKPEPHSAANEPKHPAARPKHVALQQLTGAQAVIRSLEELGVDVIFGIPGGAVLPVYDPLFDSKKLRHVLVRHEQGAGHAASGYAHVTGRVGVCMATSGPGATNLVTPLADAQMDSIPVVAITGQVGRGLIGTDAFQEADISGITMPITKHNFLVRSGDDIPRVLAEAFHIAASGRPGAVLVDIPKDVLQGQCTFSWPPRMELPGYKPNTKPHSRQVREAAKLIAAARKPVLYVGGGVIRGEATEQLRELAELTGIPVVTTLMARGAFPDSHRQNLGMPGMHGTVAAVAALQRSDLLIALGTRFDDRVTGKLDSFAPEAKVIHADIDPAEIGKNRHADVPIVGDVKAVITELIAMLRHHHIPGTIEMADWWAYLNGVRKTYPLSYGPQSDGSLSPEYVIEKLGEIAGPDAVFVAGVGQHQMWAAQFIRYEKPRSWLNSGGLGTMGFAIPAAMGAKIALPGTEVWAIDGDGCFQMTNQELATCAVEGIPVKVALINNGNLGMVRQWQSLFYAERYSQTDLATHSHRIPDFVKLAEALGCVGLRCEREEDVVDVINQARAINDCPVVIDFIVGADAQVWPMVAAGTSNDEIQAARGIRPLFDDITEGHA,not soluble
13,VSEEELKLILAGAEESGAIEPQEEEMIHSILELEETPVREIMTPRVEMVAIEDEATLEDLLALYREHRYSRVPVYRESVDHIVGVAYVQDLLTYYCEEDLKAFKVASIAHPPYFVPENMDAWSLLKELRRRKVHMAIVVDEFGGTAGLVTLEDVIEEIVGEI,not soluble
14,VSGAHTDVRPELRKLAQAILDGIDPAVRVAAAMASGGGPGTGKCQQVWCPLCALAALVTGEQHPLLTVIADHSLALLEVIRAIVDDIDRSAKPPPEGPPGGGQTGASGGENTNGEGSMKSHYQAIPVTIEE,not soluble
15,VSLEDYNLSEDLKVRLDSAEGIFVSGAPGSGKSTFVSALAERYKNMDKIVKTMESPRDLQVDEEITQYAPLEGSMEKTCDILLLVRPDYTIYDEVRKTKDFEIFADMRMAGVGMVGVVHASKAIDSIQRLIGRVELGIIPQIVDTVVFIENGKIGKVYEVEFNVKVPH,not soluble
16,VTNVSWLVTGSMSALSIPGLIFSLRSSHPNLNFTPYLTQSASRIVTMTSMATLSGVTPRNSDWGSEPEATPSHIQIESESDAYLIAPATLDFLARFARYDCSTPFSLALQCTKKPILVAPS,not soluble
17,VTTRQEKAAQTRRDLLDAARVVFERNGYLNATITDITTEAGKAAGSFYNHFDGKEALLLALADDIGDDADALITTSPDDLRNLGPHLAVFWQLQSRHRPVMAALRDAALVDPEFAQRMHDFGI,not soluble
18,VTYNLEKRPTTIVLINDTPLNVLLDTGADTSVLTTAHYNRLKYRGRKYQGTGIGGVGGNVETFSTPVTIKKKGRHIKTRMLVADIPVTILGRDILQDLGAKLVL,soluble
19,VVRVGRRSATFYPPEGAAALIGDFTDWERNPIPLEGPLTLEFPEGAYVEYAFLDREGRPFPDPDNPEKAENPWWSYPRAIKLPGFRYEAPPAPKEEPKVHRHRLGERRFYVAETGPSPKATVVAQDGVAFYRTAGLHKVARALFEAGEIPPVRLVFVEPIDRNTEYRFNEAYEAEFHRVLEEVEGAYGPLNELVLVGASLGGLFSLWQAWRHPERFPKVLALSPALKAHPGGKDAYRDEEWLLARYAEARRLPRVYVEVGLLEWLLGPNRRLAALFADKKVPHAYRERPSGHNWVTWKQALAPGLRYLLGPQ,soluble
20,WNRRTEQLTDGLGAQIDPDSMTPASPADIDTLTAWRQGKIIFKDQPLASVVKEMNRYLPQPITITDHRLDQVRIAGVFNTGDSAAFLQALHKSIPVQVILHADGSTELSLPR,not soluble
21,YAGLSRFTLSYHNVEYKLFGYGTILNNTNFPGGSSGSAVFNKEKQLTSIYFGSLINVTTGNNRNVNLGLGQILRTYNTNNSKHS,not soluble
22,YASQSAGKEYYKHIEKIIVDNDVYEKSLEGERTFDINYQGIKINADLIKDGKHELTIVNKKDGDILITFIKKG,not soluble
23,YCTLADLQLAIPQATLTQLTNDVPADYSVAQEPNLAVVEEAVRQAEELVDAHLRGRYVLPLVTVPSVIKDNTVNLARHWLYARRPEGNELPDAVTRTYKAALQILESIRDGKLHIGVPTGEAAPEPGEVRVRARRQLFSASM,not soluble
24,YEGGWTQDKQWEREMNIAQEKYGPIFAKYAAMPIEEVAKDEHAMKMGSRMFATYCSICHGSDAKGALGFPNLADNEWRWGGDPQSIETTILGGRHAIMAAWGDILGEDGVKNVAAYVRTELAGLKLPEGTKADVEAGKQIFSVNCVACHGPEGKGTALVGAPNLTNPGAFIYGSSYAQLQQTIRHGRQGQMPAQEPYLGKEKVHILAAYI,not soluble
25,YIDILNQARDYVYIMTPYLILDSEMEHALQFAAERGVDVKIIMPGIPDKKVPFALAKRYFPALLDAGVKIYEFTPGFVHAKVFIADDIKAVVGTINLDYRSLYHHFECATYMYQTDCLVDIKADFKETLKQSRRVTRSTLQKEKISTKLIGLVVKLVAPLL,not soluble
26,YIGSQDTPYTGGLINTFSYKNWELTANLSFNLGGYVRTTPSYNFINFDRGQNVNSDILDRWTPENTDGRLPALITSEKRADEYYWYDQKSEIYKNLDIWVKKLNYFRLQNLRLGYRLPEKMTKSLGMGSASVAIEGRNLLVFGSSYKNFLDPESMYNPYAPPIPKSITFSLNLNF,not soluble
27,YNSGKLEEFVQGNLERECMEEKCSFEEAREVFENTERTTEFWKQYEEEEEE,soluble
